# From patent US8318206
# T1: Fmoc-Gly-Phe-Cys-NH2 (peptide 1)
# T1 chain: GFC
# T2: Fmoc-Gly-d-Phe-d-Cys (peptide 2) (not fully specified)
# T2 chain: GFC
# B1: thermolysin from B. thermoproteolyticus Rokko (protein)
# chain: ITGTSTVGVGRGVLGDQKNINTTYSTYYYLQDNTRGNGIFTYDAKYRTTLPGSLWADADNQFFASYDAPAVDAHYYAGVTYDYYKNVHNRLSYDGNNAAIRSSVHYSQGYNNAFWNGSQMVYGDGDGQTFIPLSGGIDVVAHELTHAVTDYTAGLIYQNESGAINEAISDIFGTLVEFYANKNPDWEIGEDVYTPGISGDSLRSMSDPAKYGDPDHYSKRYTGTQDNGGVHINSGIINKAAYLISQGGTHYGVSVVGIGRDKLGKIFYRALTQYLTPTSNFSQLRAAAVQSATDLYGSTSQEVASVKQAFDAVGVK
# How the values were obtained:
# [1] = target: T1, Fmoc-Gly-Phe-Cys-NH2 (peptide 1)
# [2] = target: T2, Fmoc-Gly-d-Phe-d-Cys (peptide 2)
protein,measurement,setting,value
B1,HPLC of the supernatant after thermolysin treatment (cleaved fragment),[1],HPLC of the supernatant detected the presence of Fmoc-Gly only
same,"shift in the plasmon resonance peak (UV-visible spectra), 6 h after addition of 7.2 nM thermolysin",[1],a clear shift in the plasmon resonance peak from 565 nm to 532 nm 6 h after addition of 7.2 nM thermolysin
same,"Δ ratio A/D over a period of 47 h, 7.2 nM thermolysin",[1],"The Δ ratio A/D increases over a period of 47 h for 7.2 nM and 2.08 zM, to 96.5% and 25.2% respectively"
same,"Δ ratio A/D over a period of 47 h, 2.08 zM thermolysin",[1],"The Δ ratio A/D increases over a period of 47 h for 7.2 nM and 2.08 zM, to 96.5% and 25.2% respectively"
same,dispersion of nanoparticle aggregate,[2],nanoparticles functionalised with Fmoc-Gly-d-Phe-d-Cys did not disperse upon introduction of thermolysin
